From PMC128837 (BMC Biochemistry, 2002)

Biological target: T1, HA-Pop1p/His-Myc-Pop2p complexes (S. pombe, UniProt P87060 1-775; O14170 1-703)
T1 sequence 1: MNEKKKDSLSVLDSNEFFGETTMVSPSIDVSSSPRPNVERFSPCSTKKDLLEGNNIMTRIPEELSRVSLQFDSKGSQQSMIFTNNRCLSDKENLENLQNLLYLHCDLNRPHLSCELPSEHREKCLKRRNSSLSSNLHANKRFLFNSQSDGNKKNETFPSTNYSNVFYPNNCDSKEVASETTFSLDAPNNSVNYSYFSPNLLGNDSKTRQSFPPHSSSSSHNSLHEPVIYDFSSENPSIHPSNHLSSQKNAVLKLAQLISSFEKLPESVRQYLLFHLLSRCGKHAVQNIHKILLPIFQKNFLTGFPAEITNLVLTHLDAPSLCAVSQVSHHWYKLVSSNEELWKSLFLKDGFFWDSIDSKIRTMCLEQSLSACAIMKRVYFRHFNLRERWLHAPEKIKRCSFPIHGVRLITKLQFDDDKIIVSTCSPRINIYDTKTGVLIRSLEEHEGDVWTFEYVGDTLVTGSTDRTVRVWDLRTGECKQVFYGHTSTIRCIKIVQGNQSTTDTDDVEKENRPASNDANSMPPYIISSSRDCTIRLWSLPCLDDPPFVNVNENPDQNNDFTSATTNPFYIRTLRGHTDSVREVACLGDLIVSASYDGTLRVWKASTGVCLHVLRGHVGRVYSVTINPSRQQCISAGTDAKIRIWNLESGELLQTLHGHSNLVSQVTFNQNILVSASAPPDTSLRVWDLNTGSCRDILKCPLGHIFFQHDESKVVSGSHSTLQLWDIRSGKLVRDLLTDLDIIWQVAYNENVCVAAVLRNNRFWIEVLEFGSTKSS
T1 sequence 2: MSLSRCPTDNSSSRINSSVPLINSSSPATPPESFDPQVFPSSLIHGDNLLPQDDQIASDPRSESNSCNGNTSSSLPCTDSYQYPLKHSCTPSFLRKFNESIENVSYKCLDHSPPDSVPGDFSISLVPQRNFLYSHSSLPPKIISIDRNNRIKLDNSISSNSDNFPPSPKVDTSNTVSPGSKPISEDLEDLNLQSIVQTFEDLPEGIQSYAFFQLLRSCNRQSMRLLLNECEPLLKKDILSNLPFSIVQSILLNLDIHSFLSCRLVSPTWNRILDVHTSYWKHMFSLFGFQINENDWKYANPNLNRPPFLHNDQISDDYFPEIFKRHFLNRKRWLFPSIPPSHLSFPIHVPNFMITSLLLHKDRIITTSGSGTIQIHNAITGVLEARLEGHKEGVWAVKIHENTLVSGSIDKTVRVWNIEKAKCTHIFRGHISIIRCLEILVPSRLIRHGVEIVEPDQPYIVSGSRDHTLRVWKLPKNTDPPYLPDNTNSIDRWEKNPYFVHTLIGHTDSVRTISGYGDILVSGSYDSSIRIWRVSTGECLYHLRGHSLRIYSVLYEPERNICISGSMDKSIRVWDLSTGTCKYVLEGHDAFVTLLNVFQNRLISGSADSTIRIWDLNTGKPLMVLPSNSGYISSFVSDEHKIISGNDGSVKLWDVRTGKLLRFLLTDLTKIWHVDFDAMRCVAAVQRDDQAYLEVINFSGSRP
Experiment: pull-down

B1: bacterially expressed, phosphorylated Rum1p (natural protein)
chain: MEPSTPPMRGLCTPSTPESPGSFKGVIDASLEGNSSIMIDEIPESDLPAPQVSTFPPTPAKTPKKQLLPNLMLQDRSNSLERCMEEDREHNPFLSSSDNQLLSRKKRKPTPPPSDGLYYVFRGKRIKKSFRPGTDLSTFKPKLLFADSAPSSSSDNPTSSVDLNDYSQIGILPPNLNSIGNKMFSLKSRVPSSSSGSFVAPPPQMRLPAYSSPQKSRSNTKDENRHNLLR
modifications: phosphorylated by Cdc2p/Cig1p complexes with radiolabeled ATP; residues not stated for this preparation
B1: binds.
